The target of the assay is SARS-CoV-2 Wild-type (D614G) spike glycoprotein (SARS-CoV-2) (UniProt P0DTC2). In words: cell-based or functional assay.

In patent US20260078171A1 one finds IC50, authentic virus neutralization, IC90, authentic virus neutralization and IC50, lentivirus-based pseudovirus neutralization data, which are given here for 6 substances.

Sequence of VYD222 (antibody) (VH): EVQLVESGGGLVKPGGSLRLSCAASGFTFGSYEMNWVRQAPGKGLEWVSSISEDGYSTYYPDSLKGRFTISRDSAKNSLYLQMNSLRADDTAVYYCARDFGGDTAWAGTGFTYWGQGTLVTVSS
Sequence of VYD222 (antibody) (VL): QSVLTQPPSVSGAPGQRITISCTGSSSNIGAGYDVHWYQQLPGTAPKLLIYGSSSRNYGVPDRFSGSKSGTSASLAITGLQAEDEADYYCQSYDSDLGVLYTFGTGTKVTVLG
Sequence of VYD224 (antibody) (VH): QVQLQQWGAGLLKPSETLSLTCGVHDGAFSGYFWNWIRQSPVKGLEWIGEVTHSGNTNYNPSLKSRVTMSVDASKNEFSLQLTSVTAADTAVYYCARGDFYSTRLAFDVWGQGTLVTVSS
Sequence of VYD224 (antibody) (VL): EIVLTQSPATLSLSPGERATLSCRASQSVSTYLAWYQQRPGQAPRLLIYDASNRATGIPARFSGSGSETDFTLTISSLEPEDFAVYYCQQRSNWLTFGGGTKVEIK
Sequence of VYD223 (antibody) (VH): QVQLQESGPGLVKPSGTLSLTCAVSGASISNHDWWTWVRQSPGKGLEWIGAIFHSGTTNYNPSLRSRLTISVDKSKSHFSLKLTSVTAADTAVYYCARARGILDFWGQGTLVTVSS
Sequence of VYD223 (antibody) (VL): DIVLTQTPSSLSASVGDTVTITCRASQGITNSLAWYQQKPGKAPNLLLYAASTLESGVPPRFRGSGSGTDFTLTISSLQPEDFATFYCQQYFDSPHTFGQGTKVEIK
Sequence of ADI-58125 (antibody) (VH): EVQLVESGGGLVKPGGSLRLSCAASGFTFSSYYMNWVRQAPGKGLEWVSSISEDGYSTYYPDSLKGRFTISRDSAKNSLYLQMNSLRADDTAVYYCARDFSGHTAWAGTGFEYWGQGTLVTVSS
Sequence of ADI-58125 (antibody) (VL): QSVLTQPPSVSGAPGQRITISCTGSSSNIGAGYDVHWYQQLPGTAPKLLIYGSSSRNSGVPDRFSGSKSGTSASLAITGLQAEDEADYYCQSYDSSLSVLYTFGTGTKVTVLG

With ADI-58125 (antibody), the IC50, authentic virus neutralization is 0.052 µg/mL and the IC90, authentic virus neutralization is 0.192 µg/mL.
The like results for VYD223 (antibody) were, in that order, 0.012 µg/mL and 0.014 µg/mL.
As for LY-CoV1404 (antibody), the IC50, authentic virus neutralization is 0.021 µg/mL and the IC90, authentic virus neutralization is 0.09 µg/mL.
Substance CoV2-2130 (antibody) showed an IC50, authentic virus neutralization of 0.016 µg/mL and an IC90, authentic virus neutralization of 0.074 µg/mL.
On to VYD222 (antibody), for which the IC50, authentic virus neutralization came out at 0.033 µg/mL; the IC50, lentivirus-based pseudovirus neutralization worked out at 0.03 µg/mL; the IC90, authentic virus neutralization was 0.193 µg/mL.
For VYD224 (antibody) the same measures were 0.01 µg/mL, 0.03 µg/mL and 0.037 µg/mL.
